Data: patent US20250154265A1

Legend:
Assay in all cases: cell-based or functional assay
[1] = molecular target: EGFR L858R/T790M on H1975 cells (human) (UniProt P00533)
[2] = molecular target: EGFR on H2073 cells (human) (UniProt P00533)
[3] = molecular target: WT EGFR on HEKn cells (human) (UniProt P00533)
[4] = molecular target: human cMET on cells (Hs746T, H596, EBC-1) (human) (UniProt P08581)
Sequence of human cMET on cells (Hs746T, H596, EBC-1) (human) (P08581 25-1390 limits assumed): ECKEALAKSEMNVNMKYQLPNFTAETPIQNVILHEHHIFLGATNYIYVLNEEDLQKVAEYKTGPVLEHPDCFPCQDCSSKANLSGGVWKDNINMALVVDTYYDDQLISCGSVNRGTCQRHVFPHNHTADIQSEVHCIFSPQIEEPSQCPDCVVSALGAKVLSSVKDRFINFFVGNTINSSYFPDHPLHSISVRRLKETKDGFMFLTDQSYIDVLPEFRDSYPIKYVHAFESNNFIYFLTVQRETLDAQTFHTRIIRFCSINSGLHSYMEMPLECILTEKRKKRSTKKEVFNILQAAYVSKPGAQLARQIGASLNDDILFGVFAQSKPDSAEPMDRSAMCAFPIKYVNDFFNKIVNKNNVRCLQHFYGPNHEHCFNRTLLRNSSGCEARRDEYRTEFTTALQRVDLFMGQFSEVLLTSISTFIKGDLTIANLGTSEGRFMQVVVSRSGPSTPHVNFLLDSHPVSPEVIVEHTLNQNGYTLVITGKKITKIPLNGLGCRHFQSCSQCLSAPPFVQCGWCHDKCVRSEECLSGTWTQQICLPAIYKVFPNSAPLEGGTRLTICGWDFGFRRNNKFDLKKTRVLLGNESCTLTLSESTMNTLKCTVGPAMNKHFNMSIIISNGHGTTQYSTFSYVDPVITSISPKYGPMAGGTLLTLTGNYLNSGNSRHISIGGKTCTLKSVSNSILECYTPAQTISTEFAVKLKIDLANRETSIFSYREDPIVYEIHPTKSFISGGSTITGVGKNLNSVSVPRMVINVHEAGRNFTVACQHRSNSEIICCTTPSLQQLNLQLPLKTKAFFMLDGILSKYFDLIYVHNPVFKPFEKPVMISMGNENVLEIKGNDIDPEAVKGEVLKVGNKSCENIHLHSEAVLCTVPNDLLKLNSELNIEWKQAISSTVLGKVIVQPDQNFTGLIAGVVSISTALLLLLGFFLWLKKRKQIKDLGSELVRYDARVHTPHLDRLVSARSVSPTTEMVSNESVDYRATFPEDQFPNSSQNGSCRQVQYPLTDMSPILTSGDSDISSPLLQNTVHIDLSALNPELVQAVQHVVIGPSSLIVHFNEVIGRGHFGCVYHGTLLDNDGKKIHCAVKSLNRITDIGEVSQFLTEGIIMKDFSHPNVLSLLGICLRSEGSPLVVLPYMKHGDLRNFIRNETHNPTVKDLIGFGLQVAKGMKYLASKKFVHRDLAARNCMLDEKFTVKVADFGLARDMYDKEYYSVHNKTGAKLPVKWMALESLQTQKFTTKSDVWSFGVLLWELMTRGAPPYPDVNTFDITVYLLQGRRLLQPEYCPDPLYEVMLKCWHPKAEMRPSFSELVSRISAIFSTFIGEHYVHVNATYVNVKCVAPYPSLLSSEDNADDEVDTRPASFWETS

Row | Substance | IC50, anti-proliferation on H1975 [1] | Imax (%), anti-proliferation on H1975 [1] | IC50, anti-proliferation on H2073 [2] | Imax (%), anti-proliferation on H2073 [2] | IC50, anti-proliferation on HEKn cells [3] | Imax(%), anti-proliferation on HEKn cells [3] | Imax (%), anti-proliferation on EBC-1 [4] | Imax (%), anti-proliferation on Hs746t [4]
1 | JNJ-372 (bispecific antibody) | 0.23 nM | 58.4% | 3.46 nM | 83% | 5.7 nM | 33.5% | 0% | 0%
2 | LY3164530 (bispecific antibody) |  |  |  |  | 0.24 nM | 46.2% |  | 
